Results reported in article PMC4011913.

How the values were obtained:
Test in all cases: SPR
[1] = target: humanized IgG1 anti-herpes simplex virus glycoprotein D antibody, wild type (human)
[2] = target: humanized anti-gD IgG1 variant H310Q (human)
[3] = target: humanized anti-gD IgG1 variant T307Q/N434A (human)

Question: Which Kd [1] does the source give for “Soluble murine FcRn (neonatal Fc receptor) (from UniProt Q61559 22-297)” here?
Answer: 601 nM

Question: And the koff [1]?
Answer: 0.0037 s⁻¹

Question: And the kon [1]?
Answer: 6160 M⁻¹ s⁻¹

Question: What about the Kd [2] of the same substance?
Answer: 93 µM

Question: What about the koff [2] of the same substance?
Answer: 0.115 s⁻¹

Question: What about the kon [2] of the same substance?
Answer: 1230 M⁻¹ s⁻¹

Question: What about the Kd [3] of the same substance?
Answer: 108 nM

Question: What about the koff [3] of the same substance?
Answer: 0.0021 s⁻¹

Question: What about the kon [3] of the same substance?
Answer: 19100 M⁻¹ s⁻¹
